Laboratory results from IntAct's records for PubMed 21602882.

B1: Tumor protein 63 (Homo sapiens), Q9H3D4 (parent)
chain: MNFETSRCATLQYCPDPYIQRFVETPAHFSWKESYYRSTMSQSTQTNEFLSPEVFQHIWDFLEQPICSVQPIDLNFVDEPSEDGATNKIEISMDCIRMQDSDLSDPMWPQYTNLGLLNSMDQQIQNGSSSTSPYNTDHAQNSVTAPSPYAQPSSTFDALSPSPAIPSNTDYPGPHSFDVSFQQSSTAKSATWTYSTELKKLYCQIAKTCPIQIKVMTPPPQGAVIRAMPVYKKAEHVTEVVKRCPNHELSREFNEGQIAPPSHLIRVEGNSHAQYVEDPITGRQSVLVPYEPPQVGTEFTTVLYNFMCNSSCVGGMNRRPILIIVTLETRDGQVLGRRCFEARICACPGRDRKADEDSIRKQQVSDSTKNGDGTKRPFRQNTHGIQMTSIKKRRSPDDELLYLPVRGRETYEMLLKIKESLELMQYLPQHTIETYRQQQQQQHQHLLQKQTSIQSPSSYGNSSPPLNKMNSMNKLPSVSQLINPQQRNALTPTTIPDGMGANIPMMGTHMPMAGDMNGLSPTQALPPPLSMPSTSHCTPPPPYPTDCSIVSFLARLGCSSCLDYFTTQGLTTIYQIEHYSMDDLASLKIPEQFRHAIWKGILDHRQLHEFSSPSHLLRTPSSASTVSVGSSETRGERVIDAVRFTLRQTISFPPRDEWNDFNFDMDARRNKQQRIKEEGE

Variants of: B1
Conditions: with hipk2_human HIPK2, Q9H2X6
hipk2_human HIPK2, Q9H2X6, sequence (Q9H2X6 whole entry, looked up): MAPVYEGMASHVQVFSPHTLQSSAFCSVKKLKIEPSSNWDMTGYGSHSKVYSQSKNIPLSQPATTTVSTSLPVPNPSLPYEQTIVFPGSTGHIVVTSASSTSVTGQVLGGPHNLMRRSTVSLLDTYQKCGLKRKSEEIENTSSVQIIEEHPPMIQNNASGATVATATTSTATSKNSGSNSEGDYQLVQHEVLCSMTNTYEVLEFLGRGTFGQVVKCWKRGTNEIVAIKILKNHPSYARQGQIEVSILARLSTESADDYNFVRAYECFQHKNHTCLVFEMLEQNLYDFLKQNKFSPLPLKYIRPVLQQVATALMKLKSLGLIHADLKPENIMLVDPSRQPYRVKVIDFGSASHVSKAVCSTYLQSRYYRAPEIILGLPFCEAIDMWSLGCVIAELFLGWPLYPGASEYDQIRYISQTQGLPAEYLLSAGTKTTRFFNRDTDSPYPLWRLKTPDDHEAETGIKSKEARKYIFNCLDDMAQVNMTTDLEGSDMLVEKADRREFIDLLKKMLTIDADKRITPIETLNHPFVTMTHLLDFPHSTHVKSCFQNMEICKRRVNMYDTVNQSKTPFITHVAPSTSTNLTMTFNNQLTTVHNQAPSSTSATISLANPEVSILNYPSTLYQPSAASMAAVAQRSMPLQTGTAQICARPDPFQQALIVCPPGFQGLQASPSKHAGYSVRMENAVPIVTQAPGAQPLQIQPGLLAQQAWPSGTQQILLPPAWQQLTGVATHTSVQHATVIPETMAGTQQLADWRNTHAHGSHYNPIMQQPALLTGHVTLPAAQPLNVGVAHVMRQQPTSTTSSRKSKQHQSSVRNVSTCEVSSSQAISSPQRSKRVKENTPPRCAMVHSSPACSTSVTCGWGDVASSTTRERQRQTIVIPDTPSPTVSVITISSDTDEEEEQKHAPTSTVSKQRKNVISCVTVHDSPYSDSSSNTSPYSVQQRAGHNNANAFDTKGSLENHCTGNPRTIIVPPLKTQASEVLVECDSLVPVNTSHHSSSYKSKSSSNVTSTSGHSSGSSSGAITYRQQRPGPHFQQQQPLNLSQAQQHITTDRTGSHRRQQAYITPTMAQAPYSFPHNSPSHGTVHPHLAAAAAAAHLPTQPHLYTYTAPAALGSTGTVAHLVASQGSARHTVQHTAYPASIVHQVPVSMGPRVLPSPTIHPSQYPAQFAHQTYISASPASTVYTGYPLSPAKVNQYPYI

Row | Variant | effect of a mutation on the interaction
1 | T491A | disrupting interaction strength
